Data: patent publication US20170210813A1 (Regeneron, published 2017)

Legend:
[1] = target: T1, hPDGFRb.mmh (human, UniProt P09619 33-531); assay: blocking ELISA, biot-hPDGFRb.mmh to coated PDGF-BB
T1 construct: Soluble monomeric construct; also called soluble human PDGFR-beta.mmh
Description: The equilibrated PDGFR-beta/antibody solutions were added to ligand-coated plates, allowed to incubate for 1 hr, and washed. Levels of bound biot-hPDGFR-beta.mmh were detected using HRP conjugated streptavidin. Data were analyzed using Prism software and IC₅₀ values were calculated as the amount of antibody required to achieve 50% reduction of hPDGFR-beta-mmh bound to ligand. Maximum blocking values were also calculated and reflect the ability of the antibody to block relative to baseline. The absorbance measured at the constant amount of 250 pM biot-hPDGFR-beta-mmh on the dose curve is defined as 0% blocking and the absorbance with no added PDGFR-beta is defined as 100%. The absorbance of the wells containing the highest antibody concentration determined the maximum blocking percent.

[2] = target: T2, full length human PDGFR-beta on HEK293 cells (human, UniProt P09619 33-1106); assay: cell-based or functional assay
[3] = target: T1, hPDGFRb.mmh; assay: SPR, mAb captured, 37 C
Description: (§1) Antibodies, expressed as either mouse Fc (prefix H1M; H2M) or human Fc (prefix H4H), were captured on their respective anti-Fc sensor surfaces (Mab capture format). […] Kinetic association (kₐ) and dissociation (kd) rate constants were determined by processing and fitting the data to a 1:1 binding model using Scrubber 2.0 curve fitting software.

[4] = target: T3, human PDGFRb.mFc (human); assay: SPR, mAb captured, 25 C
T3 construct: Soluble dimeric construct with mouse Fc; also called hPDGFRb.mFc; soluble human PDGFR-beta.mFc
T3 chain: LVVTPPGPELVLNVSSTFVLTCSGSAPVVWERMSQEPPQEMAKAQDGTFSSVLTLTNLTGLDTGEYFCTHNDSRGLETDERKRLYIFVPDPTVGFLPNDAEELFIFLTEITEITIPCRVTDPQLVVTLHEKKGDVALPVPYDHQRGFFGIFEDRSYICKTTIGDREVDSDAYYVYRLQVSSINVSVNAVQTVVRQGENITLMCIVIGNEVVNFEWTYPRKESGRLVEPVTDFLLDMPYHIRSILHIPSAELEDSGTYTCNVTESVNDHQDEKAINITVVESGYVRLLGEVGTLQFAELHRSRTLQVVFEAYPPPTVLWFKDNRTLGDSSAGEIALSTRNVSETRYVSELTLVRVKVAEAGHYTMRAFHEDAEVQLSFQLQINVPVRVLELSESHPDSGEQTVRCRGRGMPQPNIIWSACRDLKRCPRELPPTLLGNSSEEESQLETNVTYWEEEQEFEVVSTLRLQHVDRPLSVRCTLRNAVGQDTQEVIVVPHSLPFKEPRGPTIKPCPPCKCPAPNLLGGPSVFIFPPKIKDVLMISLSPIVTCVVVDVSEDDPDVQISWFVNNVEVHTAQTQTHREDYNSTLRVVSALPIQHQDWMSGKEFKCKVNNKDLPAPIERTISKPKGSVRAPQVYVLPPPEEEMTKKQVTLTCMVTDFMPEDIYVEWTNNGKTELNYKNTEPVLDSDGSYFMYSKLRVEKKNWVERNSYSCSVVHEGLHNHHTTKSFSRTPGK
Description: as §1

[5] = target: T4, Macaca fascicularis PDGFRb.mmh (Macaca fascicularis); assay: SPR, mAb captured, 25 C
T4 construct: Soluble monomeric construct; also called mfPDGFRb.mmh
T4 chain: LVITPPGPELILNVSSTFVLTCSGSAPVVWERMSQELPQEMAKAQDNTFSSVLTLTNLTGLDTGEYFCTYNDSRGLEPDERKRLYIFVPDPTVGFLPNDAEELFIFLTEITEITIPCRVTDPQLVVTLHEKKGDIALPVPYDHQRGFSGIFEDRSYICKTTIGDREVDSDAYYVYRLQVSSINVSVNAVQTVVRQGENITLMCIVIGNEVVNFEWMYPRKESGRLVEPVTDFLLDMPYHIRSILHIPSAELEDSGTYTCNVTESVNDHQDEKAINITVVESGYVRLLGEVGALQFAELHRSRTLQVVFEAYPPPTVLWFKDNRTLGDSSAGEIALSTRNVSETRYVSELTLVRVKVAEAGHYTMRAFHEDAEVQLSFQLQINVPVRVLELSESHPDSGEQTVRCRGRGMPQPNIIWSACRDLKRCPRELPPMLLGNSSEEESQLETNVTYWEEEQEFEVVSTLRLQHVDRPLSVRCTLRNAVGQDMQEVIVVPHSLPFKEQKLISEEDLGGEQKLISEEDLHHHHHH
Description: as §1

[6] = target: T1, hPDGFRb.mmh; assay: SPR, mAb captured, 25 C
Description: as §1

[7] = target: T1, hPDGFRb.mmh; assay: Octet BLI cross-competition, 25 C; hPDGFRb.mmh on anti-Penta-His tips pre-saturated with mAb-1 H4H3107S (row 7)
Description: (§2) A cross-competition assay was conducted to assess the ability of select antibodies to compete with one another for binding to human PDGFR-beta. […] Each PDGFR-beta.mmh-coated sensor tip was saturated for 5 min with a first anti-PDGFR-beta antibody (Mab #1; 50 μg/mL). Next, each sensor tip was saturated with a solution of a second anti-PDGFR-beta antibody (Mab #2). The real time response of Mab #2 binding to PDGR-beta.mmh pre-complexed with Mab #1 was then monitored. All assays were performed at 25° C. with a flow rate of 1000 rpm on an Octet RED384 biosensor in Octet HBST buffer according to manufacturer's instructions (ForteBio Corp., Menlo Park, Calif.). Results are illustrated in FIG. 2.

[8] = target: T1, hPDGFRb.mmh; assay: Octet BLI cross-competition, 25 C; hPDGFRb.mmh on anti-Penta-His tips pre-saturated with mAb-1 H4H3305N (row 8)
Description: as §2

[9] = target: T5, human PDGFRb.hFc (human); assay: SPR, mAb captured, 37 C
T5 construct: Soluble dimeric construct with human Fc; also called hPDGFRb.hFc
Description: as §1

[10] = target: T4, Macaca fascicularis PDGFRb.mmh; assay: SPR, mAb captured, 37 C
Description: as §1

[11] = target: T1, hPDGFRb.mmh; assay: Octet BLI cross-competition, 25 C; hPDGFRb.mmh on anti-Penta-His tips pre-saturated with mAb-1 Control I (row 1)
Description: as §2

[12] = target: T1, hPDGFRb.mmh; assay: Octet BLI cross-competition, 25 C; hPDGFRb.mmh on anti-Penta-His tips pre-saturated with mAb-1 H4H3099S (row 6)
Description: as §2

[13] = target: T1, hPDGFRb.mmh; assay: Octet BLI cross-competition, 25 C; hPDGFRb.mmh on anti-Penta-His tips pre-saturated with mAb-1 H4H3103S (row 4)
Description: as §2

[14] = target: T5, human PDGFRb.hFc; assay: SPR, mAb captured, 25 C
Description: as §1

[15] = target: T1, hPDGFRb.mmh; assay: Octet BLI cross-competition, 25 C; hPDGFRb.mmh on anti-Penta-His tips pre-saturated with mAb-1 H4H3374N (row 3)
Description: as §2

[16] = target: T2, full length human PDGFR-beta on HEK293 …; assay: cell-based or functional assay; remark: listed apart in the source
[17] = target: T1, hPDGFRb.mmh; assay: Octet BLI cross-competition, 25 C; hPDGFRb.mmh on anti-Penta-His tips pre-saturated with mAb-1 H4H3365N (row 2)
Description: as §2

[18] = target: T1, hPDGFRb.mmh; assay: Octet BLI cross-competition, 25 C; hPDGFRb.mmh on anti-Penta-His tips pre-saturated with mAb-1 H4H3094P (row 5)
Description: as §2

B1: H2M3368N (antibody, V domains shown)
VH: QVQLQQWGAGLLKPSETLSLTCAVYGGSFSGYYWTWIRQSPGKGLEWMGEISHRGTTNYNPSLKSRLTISLDTSNNHFSLKLSSVTAADTAVYYCAREERLGMGYDYFGLDVWGQGTTVTVSS
VL: EIVLTQSPATLSLSPGERATLSCRASQSVSTYLTWYQQKPGQAPRLLIYDASNRATGIPARFSGSGSGTDFTLTISSLEPEDCAVYYCQQRSIWITFGQGTRLEIK
notes: mouse Fc (H2M prefix; isotype not spelled out)
B1 was tested, and the “% Maximum Blocking” value [1] was 79%, the IC50 [1] was 0.13 nM and the “IC50, blocking PDGF-BB (250 pM) activation, SRE-luciferase” value [2] was 1.8e-10 M. For the same binder, the “IC50, blocking PDGF-DD (400 pM) activation, SRE-luciferase” value [2] was 1.7e-10 M, the Kd [3] was 6.17 nM and the koff [3] was 0.000844 s⁻¹. It also gave a kon [3] of 137000 M⁻¹ s⁻¹, a t1/2 [3] of 0.233 h and a Kd [4] of 0.313 nM. The koff [4] was 3.7e-05 s⁻¹, the kon [4] was 118000 M⁻¹ s⁻¹ and the t1/2 [4] was 5.22 h. It also gave a Kd [5] of 30 nM, a koff [5] of 0.000185 s⁻¹ and a kon [5] of 7000 M⁻¹ s⁻¹. For the same binder, the t1/2 [5] was 1.05 h, the Kd [6] was 7.41 nM and the koff [6] was 0.000341 s⁻¹. The kon [6] was 46100 M⁻¹ s⁻¹ and the t1/2 [6] was 0.567 h.

B2: H4H3310N (antibody, human IgG4, V domains shown)
VH: EVQLLESGGDLVQPGGSLRLSCAASGITFSSFAMSWVRQAPGKGLEWVSTVSVSAGITYYADSVKGRFTISRDNSKNTLYLQMNSLRAEDTAIYYCAKSSCTTNSCPAYFDYWGLGTLVTVSS
VL: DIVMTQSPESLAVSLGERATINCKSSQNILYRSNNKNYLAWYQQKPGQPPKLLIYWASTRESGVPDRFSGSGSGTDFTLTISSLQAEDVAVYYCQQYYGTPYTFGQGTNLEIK
notes: human IgG4 Fc (H4H prefix)
In the case of B2, the “% Maximum Blocking” value [1] is reported as 86%, the IC50 [1] is reported as 0.45 nM and the “Response of mAb-2 Binding to hPDGFRβ.mmh Pre-Complexed with mAb-1 (nm)” value (shortened to “Response of mAb-2 Binding”) [7] is reported as -0.01 nm. For the same binder, the “IC50, blocking PDGF-BB (250 pM) activation, SRE-luciferase” value [2] was 6.8e-10 M, the “IC50, blocking PDGF-DD (400 pM) activation, SRE-luciferase” value [2] was 6.6e-10 M and the “Response of mAb-2 Binding” value [8] was 0.01 nm. For the same binder, the Kd [9] was 0.632 nM, the koff [9] was 4.5e-05 s⁻¹ and the kon [9] was 71300 M⁻¹ s⁻¹. It also gave a t1/2 [9] of 4.27 h, a Kd [10] of 7.62 nM and a koff [10] of 0.000392 s⁻¹. The kon [10] was 51400 M⁻¹ s⁻¹, the t1/2 [10] was 0.483 h and the Kd [3] was 6.65 nM. For the same binder, the koff [3] was 0.000339 s⁻¹, the kon [3] was 50900 M⁻¹ s⁻¹ and the t1/2 [3] was 0.567 h. The “Response of mAb-2 Binding” value [11] was 0.2 nm, the “Response of mAb-2 Binding” value [12] was -0.01 nm and the “Response of mAb-2 Binding” value [13] was 0.24 nm. The Kd [14] was 0.652 nM, the koff [14] was 2.9e-05 s⁻¹ and the kon [14] was 44500 M⁻¹ s⁻¹. It also gave a t1/2 [14] of 6.63 h, a Kd [5] of 3.75 nM and a koff [5] of 0.000108 s⁻¹. It also gave a kon [5] of 28800 M⁻¹ s⁻¹, a t1/2 [5] of 1.78 h and a Kd [6] of 3.41 nM. The koff [6] was 8.92e-05 s⁻¹, the kon [6] was 26100 M⁻¹ s⁻¹ and the t1/2 [6] was 2.17 h. For the same binder, the “Response of mAb-2 Binding” value [15] was 0.23 nm, the “Percent Internalization (Relative to Control I)” value [16] was 66% and the “Response of mAb-2 Binding” value [17] was 0.24 nm. The “Response of mAb-2 Binding” value [18] was 0.27 nm.
